Data reported in publication PMC8986097, “SUMO-mediated recruitment allows timely function of the Yen1 nuclease in mitotic cells” (PLoS Genetics, 2022).
Changes are numbered by the printed parent chain. Names may count otherwise.

B1: Yen1 SIM1-2ΔΔ (D635A D636A D637A V675A E677A), HA-tagged, purified (natural protein, S. cerevisiae, UniProt P40028 1-759, looked up)
chain: MGVSQIWEFLKPYLQDSRIPLRKFVIDFNKSQKRAPRIAIDAYGWLFECGFIQNIDISARSRSRSRSPTRSPRDSDIDSSQEYYGSRSYTTTGKAVINFISRLKELLSLNVEFLLVFDGVMKPSFKRKFNHEQNATTCDDEKEYYSSWEQHVKNHEVYGNCKGLLAPSDPEFISLVRKLLDLMNISYVIACGEGEAQCVWLQVSGAVDFILSNDSDTLVFGGEKILKNYSKFYDDFGPSSITSHSPSRHHDSKESFVTVIDLPKINKVAGKKFDRLSLLFFSVLLGADYNRGVKGLGKNKSLQLAQCEDPNFSMEFYDIFKDFNLEDLTSESLRKSRYRLFQKRLYLYCKDHSVELFGRNYPVLLNQGSFEGWPSTVAIMHYFHPIVQPYFDEEVLSDKYINMAGNGHYRNLNFNELKYFLQSLNLPQISSFDKWFHDSMHEMFLLREFLSIDESDNIGKGNMRITEEKIMNIDGGKFQIPCFKIRYTTFLPNIPISSQSPLKRSNSPSRSKSPTRRQMDIMEHPNSLWLPKYLIPQSHPLVIQYYETQQLIQKEKEKKGKKSNKSRLPQKNNLDEFLRKHTSPIKSIGKVGESRKEILEPVRKRLFVDTDEDTSLEEIPAPTRLTTVDEHSDNAAASLIFVDEITNSQSVLDSSPGKRIRDLTQDEQVDVWKDAIAISPIKKSRTTNAEKNPPESGLKSRSSITINARLQGTKMLPPNLTAPRLEREHSSVLDQLVTDAQDTVDRFVACDSDSSSTIE
B2: Yen1 SIM2Δ (V675A E677A), HA-tagged, purified (natural protein, S. cerevisiae, UniProt P40028 1-759, looked up)
chain: B1 chain with A635D, A636D, A637D
B3: Yen1 SIM1Δ (D635A D636A D637A), HA-tagged, purified (natural protein, S. cerevisiae, UniProt P40028 1-759, looked up)
chain: B1 chain with A675V, A677E

The binders below were run against GST-Smt3 (S. cerevisiae, UniProt Q12306 1-101 = SUMO) (assay: cell-based or functional assay).
Chain of GST-Smt3 (Q12306 whole entry): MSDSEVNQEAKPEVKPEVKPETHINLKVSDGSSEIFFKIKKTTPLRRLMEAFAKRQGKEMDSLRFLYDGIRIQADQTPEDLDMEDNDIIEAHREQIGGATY

| Binder | fraction of SUMOylated Yen1 recovered by denaturing Ni-NTA pull-down of 6xHis-Smt3 from cells grown in 0.3% MMS, relative to wild-type Yen1 [%] |
| --- | --- |
| B1 | 1 |
| B2 | ~20 |
| B3 | 5 |
